For the experiment, the target named is NTSR1. The experiment is described as follows: cell-based or functional assay.

“Neurotensin (NTS) (from UniProt P30990 151-163) (peptide)” displayed a decrease in cell growth (proliferation) of CHO cells overexpressing NTSR1 of 60%.

The values above are taken from US20170233470A1.
